Reference: US20240117018A1

Tests used:
Assay in all cases: cell-based or functional assay
[1] = target: HIV-1 Env of pseudovirus 0815.v3.c3 (HIV-1)
[2] = target: HIV-1 Env of pseudovirus 191084 B7-19 (HIV-1)
[3] = target: HIV-1 Env of pseudovirus 191955_A11 (HIV-1)
[4] = target: HIV-1 Env of pseudovirus 211-9 (HIV-1)
[5] = target: HIV-1 Env of pseudovirus 231965.c01 (HIV-1)
[6] = target: HIV-1 Env of pseudovirus 231966.c02 (HIV-1)
[7] = target: HIV-1 Env of pseudovirus 235-47 (HIV-1)
[8] = target: HIV-1 Env of pseudovirus 263-8 (HIV-1)
[9] = target: HIV-1 Env of pseudovirus 3016.v5.c45 (HIV-1)
[10] = target: HIV-1 Env of pseudovirus 3103.v3.c10 (HIV-1)
[11] = target: HIV-1 Env of pseudovirus 3301.v1.c24 (HIV-1)
[12] = target: HIV-1 Env of pseudovirus 6041.v3.c23 (HIV-1)
[13] = target: HIV-1 Env of pseudovirus 620345.c01 (HIV-1)
[14] = target: HIV-1 Env of pseudovirus 6480.v4.c25 (HIV-1)
[15] = target: HIV-1 Env of pseudovirus 6540.v4.c1 (HIV-1)
[16] = target: HIV-1 Env of pseudovirus 6545.v4.c1 (HIV-1)
[17] = target: HIV-1 Env of pseudovirus 6952.v1.c20 (HIV-1)
[18] = target: HIV-1 Env of pseudovirus 9004SS_A3_4 (HIV-1)
[19] = target: HIV-1 Env of pseudovirus 928-28 (HIV-1)
[20] = target: HIV-1 Env of pseudovirus A07412M1.vrc12 (HIV-1)
[21] = target: HIV-1 Env of pseudovirus BJOX009000.02.4 (HIV-1)
[22] = target: HIV-1 Env of pseudovirus BJOX015000.11.5 (HIV-1)
[23] = target: HIV-1 Env of pseudovirus BJOX025000.01.1 (HIV-1)
[24] = target: HIV-1 Env of pseudovirus BJOX028000.10.3 (HIV-1)
[25] = target: HIV-1 Env of pseudovirus C3347.c11 (HIV-1)
[26] = target: HIV-1 Env of pseudovirus C4118.c09 (HIV-1)
[27] = target: HIV-1 Env of pseudovirus P0402_c2_11 (HIV-1)
[28] = target: HIV-1 Env of pseudovirus P1981_C5_3 (HIV-1)
[29] = target: HIV-1 Env of pseudovirus R1166.c01 (HIV-1)
[30] = target: HIV-1 Env of pseudovirus R2184.c04 (HIV-1)
[31] = target: HIV-1 Env of pseudovirus R3265.c06 (HIV-1)
[32] = target: HIV-1 Env of pseudovirus T255-34 (HIV-1)
[33] = target: HIV-1 Env of pseudovirus T257-31 (HIV-1)
[34] = target: HIV-1 Env of pseudovirus T278-50 (HIV-1)
[35] = target: HIV-1 Env of pseudovirus X1254_c3 (HIV-1)
[36] = target: HIV-1 Env of pseudovirus X2131_C1_B5 (HIV-1)

Substance: N49P9 (antibody)
- neutralization IC50 [1]: 0.02 µg/mL
- neutralization IC80 [1]: 0.057 µg/mL
- neutralization MPI [1]: 100
- neutralization IC50 [2]: 0.042 µg/mL
- neutralization IC80 [2]: 0.129 µg/mL
- neutralization MPI [2]: 100
- neutralization IC50 [3]: > 50 µg/mL
- neutralization IC80 [3]: > 50 µg/mL
- neutralization MPI [3]: 35
- neutralization IC50 [4]: 0.136 µg/mL
- neutralization IC80 [4]: 0.485 µg/mL
- neutralization MPI [4]: 100
- neutralization IC50 [5]: 0.253 µg/mL
- neutralization IC80 [5]: 1.16 µg/mL
- neutralization MPI [5]: 100
- neutralization IC50 [6]: 0.074 µg/mL
- neutralization IC80 [6]: 0.244 µg/mL
- neutralization MPI [6]: 100
- neutralization IC50 [7]: 0.072 µg/mL
- neutralization IC80 [7]: 0.271 µg/mL
- neutralization MPI [7]: 98
- neutralization IC50 [8]: 0.032 µg/mL
- neutralization IC80 [8]: 0.161 µg/mL
- neutralization MPI [8]: 100
- neutralization IC50 [9]: 0.06 µg/mL
- neutralization IC80 [9]: 0.209 µg/mL
- neutralization MPI [9]: 100
- neutralization IC50 [10]: 17.6 µg/mL
- neutralization IC80 [10]: > 50 µg/mL
- neutralization MPI [10]: 55
- neutralization IC50 [11]: 0.072 µg/mL
- neutralization MPI [11]: 100
- neutralization IC50 [12]: 0.089 µg/mL
- neutralization IC80 [12]: 0.777 µg/mL
- neutralization MPI [12]: 95
- neutralization IC50 [13]: > 50 µg/mL
- neutralization IC80 [13]: > 50 µg/mL
- neutralization MPI [13]: 9
- neutralization IC50 [14]: 0.017 µg/mL
- neutralization IC80 [14]: 0.047 µg/mL
- neutralization MPI [14]: 100
- neutralization IC50 [15]: > 50 µg/mL
- neutralization IC80 [15]: > 50 µg/mL
- neutralization MPI [15]: 49
- neutralization IC50 [16]: > 50 µg/mL
- neutralization IC80 [16]: > 50 µg/mL
- neutralization MPI [16]: 20
- neutralization IC50 [17]: 0.095 µg/mL
- neutralization IC80 [17]: 0.258 µg/mL
- neutralization MPI [17]: 100
- neutralization IC50 [18]: 0.175 µg/mL
- neutralization IC80 [18]: 0.751 µg/mL
- neutralization MPI [18]: 100
- neutralization IC50 [19]: 0.094 µg/mL
- neutralization IC80 [19]: 0.339 µg/mL
- neutralization MPI [19]: 100
- neutralization IC50 [20]: 0.142 µg/mL
- neutralization IC80 [20]: 0.636 µg/mL
- neutralization MPI [20]: 100
- neutralization IC50 [21]: 0.727 µg/mL
- neutralization IC80 [21]: 3.29 µg/mL
- neutralization MPI [21]: 100
- neutralization IC50 [22]: 0.089 µg/mL
- neutralization IC80 [22]: 0.375 µg/mL
- neutralization MPI [22]: 100
- neutralization IC50 [23]: 0.055 µg/mL
- neutralization IC80 [23]: 0.252 µg/mL
- neutralization MPI [23]: 100
- neutralization IC50 [24]: 0.031 µg/mL
- neutralization IC80 [24]: 0.134 µg/mL
- neutralization MPI [24]: 100
- neutralization IC50 [25]: 0.023 µg/mL
- neutralization IC80 [25]: 0.065 µg/mL
- neutralization MPI [25]: 100
- neutralization IC50 [26]: 0.072 µg/mL
- neutralization IC80 [26]: 0.2 µg/mL
- neutralization MPI [26]: 100
- neutralization IC50 [27]: 0.028 µg/mL
- neutralization IC80 [27]: 0.085 µg/mL
- neutralization MPI [27]: 100
- neutralization IC50 [28]: 0.308 µg/mL
- neutralization IC80 [28]: 0.701 µg/mL
- neutralization MPI [28]: 100
- neutralization IC50 [29]: 0.064 µg/mL
- neutralization IC80 [29]: 0.223 µg/mL
- neutralization MPI [29]: 100
- neutralization IC50 [30]: 0.015 µg/mL
- neutralization IC80 [30]: 0.034 µg/mL
- neutralization MPI [30]: 100
- neutralization IC50 [31]: 0.135 µg/mL
- neutralization IC80 [31]: 0.812 µg/mL
- neutralization MPI [31]: 100
- neutralization IC50 [32]: 0.051 µg/mL
- neutralization IC80 [32]: 0.247 µg/mL
- neutralization MPI [32]: 100
- neutralization IC50 [33]: 0.216 µg/mL
- neutralization IC80 [33]: 0.821 µg/mL
- neutralization MPI [33]: 100
- neutralization IC50 [34]: > 50 µg/mL
- neutralization IC80 [34]: > 50 µg/mL
- neutralization MPI [34]: 25
- neutralization IC50 [35]: 0.04 µg/mL
- neutralization IC80 [35]: 0.104 µg/mL
- neutralization MPI [35]: 100
- neutralization IC50 [36]: 0.082 µg/mL
- neutralization IC80 [36]: 0.274 µg/mL
- neutralization MPI [36]: 100
